# Results as given in publication PMC29063.
# B1: Elk-1 (wild type), in vitro translated (natural protein)
# chain: MDPSVTLWQFLLQLLREQGNGHIISWTSRDGGEFKLVDAEEVARLWGLRKNKTNMNYDKLSRALRYYYDKNIIRKVSGQKFVYKFVSYPEVAGCSTEDCPPQPEVSVTSTMPNVAPAAIHAAPGDTVSGKPGTPKGAGMAGPGGLARSSRNEYMRSGLYSTFTIQSLQPQPPPHPRPAVVLPSAAPAGAAAPPSGSRSTSPSPLEACLEAEEAGLPLQVILTPPEAPNLKSEELNVEPGLGRALPPEVKVEGPKEELEVAGERGFVPETTKAEPEVPPQEGVPARLPAVVMDTAGQAGGHAASSPEISQPQKGRKPRDLELPLSPSLLGGPGPERTPGSGSGSGLQAPGPALTPSLLPTHTLTPVLLTPSSLPPSIHFWSTLSPIAPRSPAKLSFQFPSSGSAQVHIPSISVDGLSTPVVLSPGPQKP
# modifications: labeled with [35S] methionine
# Molecular target: GST-p35-C/EBPβ
# Assay: pull-down
binder,measurement,value
B1,percent of input retained on the beads,35 to 45%
